Measurements from patent publication US20180327803A1.

What was measured:
[1] = biological target: human IgG1 antibody (#I5154; Sigma-Aldrich) (human); assay: SPR, single cycle kinetics, IgG1 chip
[2] = biological target: human serum-derived IgG polyclonal antibody (#I4506; Sigma-Aldrich) (human); assay: scFv-immobilized HiTrap NHS column

B1: R3-26 rabbit-derived single-chain antibody-His (scFv)
scFv: QEQLVESGGGLVKPGGTLTLTCTVSGIDLSSYAMSWVRQVPGKGLEWIGIIGSGGGTAYANWAKGRFTISKTSSTTVDLKMTSLTTEDTATYFCATDYGIYGYAYGHLWGPGTLVTVTSGGGGSGGGGSGGGGSELVMTQTASPVSAAVGGTVTIKCQASQSISTALAWYQQRPGQPPKLLIYDASTLASGVSSRFKGSGSGTEFTLTISDLECADAATYYCQTYFGSDTDNAFGEGTEVEITGSHHHHHH
[1]
  Kd: 2.1 nM
  koff: 4.3e-05 s⁻¹
  kon: 21000 M⁻¹ s⁻¹
[2]
  amount of IgG adsorbed to the column and eluted: 5.3 mg
  percent of supplied IgG adsorbed to the column and eluted: 53%
